The record followed here is publication PMC11832219 (Molecular cell, 2024).

Sequences and labels used below:
B1: MED6 (natural protein, human (endogenous in 293-F), UniProt O75586 1-246, looked up)
chain: MAAVDIRDNLLGISWVDSSWIPILNSGSVLDYFSERSNPFYDRTCNNEVVKMQRLTLEHLNQMVGIEYILLHAQEPILFIIRKQQRQSPAQVIPLADYYIIAGVIYQAPDLGSVINSRVLTAVHGIQSAFDEAMSYCRYHPSKGYWWHFKDHEEQDKVRPKAKRKEEPSSIFQRQRVDALLLDLRQKFPPKFVQLKPGEKPVPVDQTKKEAEPIPETVKPEEKETTKNVQQTVSAKGPPEKRMRLQ
B2: MED10 (natural protein, human (endogenous in 293-F), UniProt Q9BTT4 1-135, looked up)
chain: MAEKFDHLEEHLEKFVENIRQLGIIVSDFQPSSQAGLNQKLNFIVTGLQDIDKCRQQLHDITVPLEVFEYIDQGRNPQLYTKECLERALAKNEQVKGKIDTMKKFKSLLIQELSKVFPEDMAKYRSIRGEDHPPS
B3: MED19 (natural protein, human (endogenous in 293-F), UniProt A0JLT2 1-244, looked up)
chain: MENFTALFGAQADPPPPPTALGFGPGKPPPPPPPPAGGGPGTAPPPTAATAPPGADKSGAGCGPFYLMRELPGSTELTGSTNLITHYNLEQAYNKFCGKKVKEKLSNFLPDLPGMIDLPGSHDNSSLRSLIEKPPILSSSFNPITGTMLAGFRLHTGPLPEQCRLMHIQPPKKKNKHKHKQSRTQDPVPPETPSDSDHKKKKKKKEEDPDRKRKKKEKKKKKNRHSPDHPGMGSSQASSSSSLR
B4: Flag-tagged MED13 IDRc (residues 500–1069), expressed in 293-F cells (domain or fragment, human, UniProt Q9UHV7 500-1069, looked up)
chain: SAPDSQVRFSNIRTNDVAKTPQMHGTEMANSPQPPPLSPHPCDVVDEGVTKTPSTPQSQHFYQMPTPDPLVPSKPMEDRIDSLSQSFPPQYQEAVEPTVYVGTAVNLEEDEANIAWKYYKFPKKKDVEFLPPQLPSDKFKDDPVGPFGQESVTSVTELMVQCKKPLKVSDELVQQYQIKNQCLSAIASDAEQEPKIDPYAFVEGDEEFLFPDKKDRQNSEREAGKKHKVEDGTSSVTVLSHEEDAMSLFSPSIKQDAPRPTSHARPPSTSLIYDSDLAVSYTDLDNLFNSDEDELTPGSKKSANGSDDKASCKESKTGNLDPLSCISTADLHKMYPTPPSLEQHIMGFSPMNMNNKEYGSMDTTPGGTVLEGNSSSIGAQFKIEVDEGFCSPKPSEIKDFSYVYKPENCQILVGCSMFAPLKTLPSQYLPPIKLPEECIYRQSWTVGKLELLSSGPSMPFIKEGDGSNMDQEYGTAYTPQTHTSFGMPPSSAPPSNSGAGILPSPSTPRFPTPRTPRTPRTPRGAGGPASAQGSVKYENSDLYSPASTPSTCRPLNSVEPATVPSIPEAH
B5: MED31 (natural protein, human (endogenous in 293-F), UniProt Q9Y3C7 1-131, looked up)
chain: MAAAVAMETDDAGNRLRFQLELEFVQCLANPNYLNFLAQRGYFKDKAFVNYLKYLLYWKDPEYAKYLKYPQCLHMLELLQYEHFRKELVNAQCAKFIDEQQILHWQHYSRKRMRLQQALAEQQQQNNTSGK
B6: MED21 (natural protein, human (endogenous in 293-F), UniProt Q13503 1-144, looked up)
chain: MADRLTQLQDAVNSLADQFCNAIGVLQQCGPPASFNNIQTAINKDQPANPTEEYAQLFAALIARTAKDIDVLIDSLPSEESTAALQAASLYKLEEENHEAATCLEDVVYRGDMLLEKIQSALADIAQSQLKTRSGTHSQSLPDS
B7: MED8 (natural protein, human (endogenous in 293-F), UniProt Q96G25 1-268, looked up)
chain: MQREEKQLEASLDALLSQVADLKNSLGSFICKLENEYGRLTWPSVLDSFALLSGQLNTLNKVLKHEKTPLFRNQVIIPLVLSPDRDEDLMRQTEGRVPVFSHEVVPDHLRTKPDPEVEEQEKQLTTDAARIGADAAQKQIQSLNKMCSNLLEKISKEERESESGGLRPNKQTFNPTDTNALVAAVAFGKGLSNWRPSGSSGPGQAGQPGAGTILAGTSGLQQVQMAGAPSQQQPMLSGVQMAQAGQPGKMPSGIKTNIKSASMHPYQR
B8: MED7 (natural protein, human (endogenous in 293-F), UniProt O43513 1-233, looked up)
chain: MGEPQQVSALPPPPMQYIKEYTDENIQEGLAPKPPPPIKDSYMMFGNQFQCDDLIIRPLESQGIERLHPMQFDHKKELRKLNMSILINFLDLLDILIRSPGSIKREEKLEDLKLLFVHVHHLINEYRPHQARETLRVMMEVQKRQRLETAERFQKHLERVIEMIQNCLASLPDDLPHSEAGMRVKTEPMDADDSNNCTGQNEHQRENSGHRRDQIIEKDAALCVLIDEMNERP
B9: CCNC-6xHis (recombinant CKM subunit) (natural protein, human)
chain: MAGNFWQSSHYLQWILDKQDLLKERQKDLKFLSEEEYWKLQIFFTNVIQALGEHLKLRQQVIATATVYFKRFYARYSLKSIDPVLMAPTCVFLASKVEEFGVVSNTRLIAAATSVLKTRFSYAFPKEFPYRMNHILECEFYLLELMDCCLIVYHPYRPLLQYVQDMGQEDMLLPLAWRIVNDTYRTDLCLLYPPFMIALACLHVACVVQQKDARQWFAELSVDMEKILEIIRVILKLYEQWKNFDERKEMATILSKMPKPKPPPNSEGEQGPNGSQNSSYSQS
B10: CCNC (natural protein, human (endogenous in 293-F), UniProt P24863 1-283, looked up)
chain: B9 chain

For test [1], the target named is B4. The test is described as follows: cryo-EM structure.
The next test has as its target MED12 (human (endogenous in 293-F), UniProt Q93074 1-2177). The test is described as follows: cross-linking.
In test [2] the target is T1, MED13 (human (endogenous in 293-F), UniProt Q9UHV7 1-2174). The test is described as follows: cross-linking.
T1 sequence (Q9UHV7 whole entry): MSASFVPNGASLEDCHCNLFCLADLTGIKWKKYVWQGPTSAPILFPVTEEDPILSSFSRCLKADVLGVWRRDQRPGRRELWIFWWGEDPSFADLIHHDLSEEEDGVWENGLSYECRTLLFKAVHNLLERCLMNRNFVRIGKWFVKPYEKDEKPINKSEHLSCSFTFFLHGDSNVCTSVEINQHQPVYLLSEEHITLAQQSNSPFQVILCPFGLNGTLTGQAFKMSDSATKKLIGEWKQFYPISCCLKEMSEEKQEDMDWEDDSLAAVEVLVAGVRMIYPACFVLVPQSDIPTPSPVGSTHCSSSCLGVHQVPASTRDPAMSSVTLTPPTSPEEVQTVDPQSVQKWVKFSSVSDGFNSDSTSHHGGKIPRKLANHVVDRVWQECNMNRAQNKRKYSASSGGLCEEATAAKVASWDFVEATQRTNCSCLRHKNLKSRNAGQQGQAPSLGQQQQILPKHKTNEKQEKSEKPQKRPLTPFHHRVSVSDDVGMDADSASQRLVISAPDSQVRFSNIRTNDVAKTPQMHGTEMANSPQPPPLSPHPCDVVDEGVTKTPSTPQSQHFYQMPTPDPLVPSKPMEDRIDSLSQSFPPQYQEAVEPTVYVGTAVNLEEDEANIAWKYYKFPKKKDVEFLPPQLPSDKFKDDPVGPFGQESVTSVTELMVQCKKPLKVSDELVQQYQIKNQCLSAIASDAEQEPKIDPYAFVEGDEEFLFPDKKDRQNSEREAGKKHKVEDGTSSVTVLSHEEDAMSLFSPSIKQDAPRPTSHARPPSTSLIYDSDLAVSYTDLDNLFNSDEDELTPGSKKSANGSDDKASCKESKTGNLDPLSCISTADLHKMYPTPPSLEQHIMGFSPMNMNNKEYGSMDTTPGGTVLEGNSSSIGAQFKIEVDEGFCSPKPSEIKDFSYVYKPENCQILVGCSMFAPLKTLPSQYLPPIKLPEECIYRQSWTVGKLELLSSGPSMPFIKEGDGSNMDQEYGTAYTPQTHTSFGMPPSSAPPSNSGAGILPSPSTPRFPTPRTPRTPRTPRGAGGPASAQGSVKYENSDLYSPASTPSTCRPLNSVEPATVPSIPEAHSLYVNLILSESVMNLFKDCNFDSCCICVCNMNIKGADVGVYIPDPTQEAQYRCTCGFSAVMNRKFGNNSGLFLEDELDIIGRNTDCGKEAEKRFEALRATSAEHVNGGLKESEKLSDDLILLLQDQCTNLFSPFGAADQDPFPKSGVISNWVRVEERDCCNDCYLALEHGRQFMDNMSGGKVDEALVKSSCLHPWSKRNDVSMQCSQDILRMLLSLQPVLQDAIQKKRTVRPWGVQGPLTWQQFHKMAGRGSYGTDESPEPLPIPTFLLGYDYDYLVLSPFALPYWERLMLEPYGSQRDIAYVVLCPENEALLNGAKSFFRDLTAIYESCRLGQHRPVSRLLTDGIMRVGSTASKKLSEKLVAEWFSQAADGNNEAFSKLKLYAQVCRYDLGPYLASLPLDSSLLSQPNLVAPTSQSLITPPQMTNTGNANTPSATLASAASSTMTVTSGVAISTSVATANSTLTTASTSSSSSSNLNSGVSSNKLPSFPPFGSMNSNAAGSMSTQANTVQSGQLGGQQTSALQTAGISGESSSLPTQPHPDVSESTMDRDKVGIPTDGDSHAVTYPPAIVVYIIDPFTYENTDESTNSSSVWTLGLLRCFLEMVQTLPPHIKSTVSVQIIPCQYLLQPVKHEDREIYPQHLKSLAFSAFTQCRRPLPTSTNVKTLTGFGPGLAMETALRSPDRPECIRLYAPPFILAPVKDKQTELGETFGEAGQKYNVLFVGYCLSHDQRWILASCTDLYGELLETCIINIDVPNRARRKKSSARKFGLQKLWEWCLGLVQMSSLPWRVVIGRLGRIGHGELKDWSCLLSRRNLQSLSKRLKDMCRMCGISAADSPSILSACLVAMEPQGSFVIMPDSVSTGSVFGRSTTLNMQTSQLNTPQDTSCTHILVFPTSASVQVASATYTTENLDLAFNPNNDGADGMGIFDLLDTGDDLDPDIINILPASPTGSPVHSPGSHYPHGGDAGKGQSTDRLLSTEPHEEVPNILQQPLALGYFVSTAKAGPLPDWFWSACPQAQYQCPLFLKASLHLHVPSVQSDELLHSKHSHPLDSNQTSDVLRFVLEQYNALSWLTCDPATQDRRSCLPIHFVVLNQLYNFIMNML
A further test concerns the target MED12L (human (endogenous in 293-F), UniProt Q86YW9 1-2145). Briefly: cross-linking.
The target in test [3] is T1, MED13. Briefly: cryo-EM structure.
A further test deals with MED14 (human (endogenous in 293-F), UniProt O60244 1-1454). The test is described as follows: cryo-EM structure.
The target of the next test is T2, MED17 (human (endogenous in 293-F), UniProt Q9NVC6 1-651).
T2 sequence (looked up): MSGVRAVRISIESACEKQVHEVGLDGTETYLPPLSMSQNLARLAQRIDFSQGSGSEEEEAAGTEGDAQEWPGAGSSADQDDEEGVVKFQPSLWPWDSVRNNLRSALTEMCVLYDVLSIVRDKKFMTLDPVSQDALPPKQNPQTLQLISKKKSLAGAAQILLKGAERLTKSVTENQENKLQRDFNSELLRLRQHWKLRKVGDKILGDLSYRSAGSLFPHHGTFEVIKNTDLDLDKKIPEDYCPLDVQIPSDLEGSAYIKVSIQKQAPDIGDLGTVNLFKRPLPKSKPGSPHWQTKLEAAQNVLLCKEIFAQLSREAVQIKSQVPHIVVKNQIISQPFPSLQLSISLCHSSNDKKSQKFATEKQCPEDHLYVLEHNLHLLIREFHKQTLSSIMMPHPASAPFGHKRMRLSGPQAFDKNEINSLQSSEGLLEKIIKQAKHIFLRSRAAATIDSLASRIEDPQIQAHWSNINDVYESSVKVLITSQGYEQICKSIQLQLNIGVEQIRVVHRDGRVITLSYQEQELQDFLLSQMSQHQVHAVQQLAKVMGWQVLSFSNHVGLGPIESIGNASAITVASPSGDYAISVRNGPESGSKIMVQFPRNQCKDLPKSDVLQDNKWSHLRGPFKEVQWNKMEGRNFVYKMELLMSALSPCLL
Briefly: cryo-EM structure.

Test [4] has as its target CDK8-Flag (recombinant CKM subunit) (human, UniProt P49336 1-464). The test is described as follows: cryo-EM structure.

MED12, sequence (Q93074 whole entry): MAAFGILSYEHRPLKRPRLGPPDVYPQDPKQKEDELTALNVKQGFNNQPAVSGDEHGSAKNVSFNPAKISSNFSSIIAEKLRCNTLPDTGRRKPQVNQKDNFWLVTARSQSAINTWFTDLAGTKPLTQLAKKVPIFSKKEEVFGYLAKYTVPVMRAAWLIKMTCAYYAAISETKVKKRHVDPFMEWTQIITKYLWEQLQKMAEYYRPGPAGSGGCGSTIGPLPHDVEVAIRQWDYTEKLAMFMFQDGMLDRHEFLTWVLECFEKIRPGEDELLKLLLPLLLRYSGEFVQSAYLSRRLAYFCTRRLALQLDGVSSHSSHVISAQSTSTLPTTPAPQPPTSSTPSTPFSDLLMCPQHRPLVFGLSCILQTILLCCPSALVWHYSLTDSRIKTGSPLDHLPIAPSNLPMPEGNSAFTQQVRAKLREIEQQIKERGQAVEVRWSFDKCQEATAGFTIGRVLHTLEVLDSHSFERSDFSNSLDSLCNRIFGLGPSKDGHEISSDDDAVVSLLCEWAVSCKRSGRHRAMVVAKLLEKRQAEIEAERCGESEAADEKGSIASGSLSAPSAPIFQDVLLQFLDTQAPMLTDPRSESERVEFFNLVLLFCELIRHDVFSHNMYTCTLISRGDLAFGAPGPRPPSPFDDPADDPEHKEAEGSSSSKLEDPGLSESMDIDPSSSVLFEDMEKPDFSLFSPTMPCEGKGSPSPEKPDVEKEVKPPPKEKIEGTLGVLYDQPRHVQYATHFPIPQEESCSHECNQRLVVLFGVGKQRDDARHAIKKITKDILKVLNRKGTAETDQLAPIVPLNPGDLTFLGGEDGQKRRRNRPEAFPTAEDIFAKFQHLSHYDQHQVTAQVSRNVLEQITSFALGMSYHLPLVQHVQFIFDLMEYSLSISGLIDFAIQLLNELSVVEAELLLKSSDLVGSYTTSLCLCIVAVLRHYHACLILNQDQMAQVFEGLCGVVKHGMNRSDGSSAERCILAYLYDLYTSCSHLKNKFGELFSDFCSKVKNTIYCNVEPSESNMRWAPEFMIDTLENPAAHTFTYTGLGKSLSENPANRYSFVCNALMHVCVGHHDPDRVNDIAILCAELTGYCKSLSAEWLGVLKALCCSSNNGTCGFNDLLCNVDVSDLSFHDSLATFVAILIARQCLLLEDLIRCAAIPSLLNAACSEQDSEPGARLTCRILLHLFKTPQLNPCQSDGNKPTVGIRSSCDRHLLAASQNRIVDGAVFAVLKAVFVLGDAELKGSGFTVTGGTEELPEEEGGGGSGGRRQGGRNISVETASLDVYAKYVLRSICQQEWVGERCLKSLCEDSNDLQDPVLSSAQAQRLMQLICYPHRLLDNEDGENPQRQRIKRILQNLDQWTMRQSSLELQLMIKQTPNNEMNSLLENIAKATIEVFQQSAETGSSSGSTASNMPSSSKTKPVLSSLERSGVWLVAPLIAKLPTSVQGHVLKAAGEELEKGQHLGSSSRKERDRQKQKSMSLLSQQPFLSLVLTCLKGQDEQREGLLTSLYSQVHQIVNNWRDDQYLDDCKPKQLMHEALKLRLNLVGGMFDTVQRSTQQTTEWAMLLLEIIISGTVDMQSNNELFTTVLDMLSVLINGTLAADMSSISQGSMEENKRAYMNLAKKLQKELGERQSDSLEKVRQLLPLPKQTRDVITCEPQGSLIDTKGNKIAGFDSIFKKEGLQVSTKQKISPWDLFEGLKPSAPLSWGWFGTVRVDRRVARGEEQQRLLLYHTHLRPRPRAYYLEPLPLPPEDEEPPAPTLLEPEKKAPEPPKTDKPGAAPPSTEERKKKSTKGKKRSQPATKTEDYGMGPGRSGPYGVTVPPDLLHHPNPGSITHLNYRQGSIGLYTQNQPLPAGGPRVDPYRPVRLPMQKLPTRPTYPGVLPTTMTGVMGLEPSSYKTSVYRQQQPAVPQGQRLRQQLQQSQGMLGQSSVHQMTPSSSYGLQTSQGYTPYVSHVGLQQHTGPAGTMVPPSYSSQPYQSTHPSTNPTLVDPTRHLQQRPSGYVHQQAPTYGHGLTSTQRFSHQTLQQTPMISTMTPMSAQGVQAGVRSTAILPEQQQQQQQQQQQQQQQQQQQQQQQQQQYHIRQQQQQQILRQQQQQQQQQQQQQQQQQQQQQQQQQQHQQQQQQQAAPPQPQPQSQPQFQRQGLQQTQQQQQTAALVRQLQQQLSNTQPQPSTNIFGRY
CDK8-Flag (recombinant CKM subunit), sequence (P49336 whole entry): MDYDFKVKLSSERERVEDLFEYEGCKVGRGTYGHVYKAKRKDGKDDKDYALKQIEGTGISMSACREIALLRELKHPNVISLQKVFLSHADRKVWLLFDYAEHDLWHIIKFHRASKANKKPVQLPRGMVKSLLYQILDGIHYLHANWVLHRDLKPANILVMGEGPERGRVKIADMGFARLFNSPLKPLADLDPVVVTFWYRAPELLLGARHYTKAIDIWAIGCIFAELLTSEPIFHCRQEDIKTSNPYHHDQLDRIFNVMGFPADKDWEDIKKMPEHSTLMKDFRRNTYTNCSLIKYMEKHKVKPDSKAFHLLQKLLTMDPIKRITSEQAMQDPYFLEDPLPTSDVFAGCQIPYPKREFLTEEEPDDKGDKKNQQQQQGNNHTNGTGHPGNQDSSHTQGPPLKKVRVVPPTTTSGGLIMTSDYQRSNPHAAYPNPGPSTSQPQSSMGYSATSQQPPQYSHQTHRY

On to B1, for which the binding result in test [1] is “binds”. On to B2, for which the binding result in the test with MED12, with MED13 [2] and with MED12L was “binds” each time. With B3, the binding result with MED12 and with MED13 [3] was “binds” each time. On to B4, for which the binding result with MED14 and with MED17 was “binds” each time. For the molecule B5, the binding result with MED13 [2] is recorded as “binds”.

In the case of B6, in test [1], the binding result is on record as “binds”. Consider B7, for which, in test [1], the binding result is recorded as “binds”. As to B8, the binding result in test [1] was “binds”. B9: the binding result in test [4] was “binds”. As for B10, the binding result in the test with MED12 is given as “binds”.
